# How the values were obtained:
# [1] = molecular target: HLA-A*30:01; assay: IEDB peptide-MHC binding, purified MHC/competitive/radioactivity; filed as Kd, often an IC50 or EC50 that approximates it; ≥ and ≤ were set here for values at or beyond the usual limits of such assays
# [2] = molecular target: HLA-B*53:01; assay: as above
# [3] = molecular target: HLA-A*02:01; assay: IEDB peptide-MHC binding, purified MHC/competitive/fluorescence; ≥ and ≤ were set here for values at or beyond the usual limits of such assays
# [4] = molecular target: HLA-A*24:02; assay: as above
# [5] = molecular target: HLA-A*68:01; assay: IEDB peptide-MHC binding, purified MHC/competitive/radioactivity; filed as Kd, often an IC50 or EC50 that approximates it; ≥ and ≤ were set here for values at or beyond the usual limits of such assays; conditions: source organism: Vaccinia virus WR
# [6] = molecular target: HLA-A*31:01; assay: as above; conditions: source organism: Vaccinia virus WR
# [7] = molecular target: HLA-A*33:01; assay: as above; conditions: source organism: Vaccinia virus WR
# [8] = molecular target: HLA-A*11:01; assay: as above; conditions: source organism: Vaccinia virus WR
# [9] = molecular target: HLA-A*03:01; assay: as above; conditions: source organism: Vaccinia virus WR
# [10] = molecular target: HLA-B*44:02; assay: as above
# [11] = molecular target: HLA-B*44:03; assay: as above
# [12] = molecular target: HLA-A*02:03; assay: as above
# [13] = molecular target: HLA-A*68:02; assay: as above
# [14] = molecular target: HLA-A*02:06; assay: as above
# [15] = molecular target: HLA-A*02:02; assay: as above
# [16] = molecular target: HLA-B*51:01; assay: as above
# [17] = molecular target: HLA-A*11:01; assay: IEDB peptide-MHC binding, purified MHC/direct/fluorescence; filed as Kd, often an IC50 or EC50 that approximates it; ≥ and ≤ were set here for values at or beyond the usual limits of such assays; conditions: source organism: Campylobacter jejuni RM1221
# [18] = molecular target: HLA-A*03:01; assay: as above; conditions: source organism: Campylobacter jejuni RM1221
# [19] = molecular target: HLA-A*26:01; assay: IEDB peptide-MHC binding, purified MHC/competitive/radioactivity; filed as Kd, often an IC50 or EC50 that approximates it; ≥ and ≤ were set here for values at or beyond the usual limits of such assays
# [20] = molecular target: HLA-B*57:01; assay: IEDB peptide-MHC binding, purified MHC/direct/fluorescence; filed as Kd, often an IC50 or EC50 that approximates it; ≥ and ≤ were set here for values at or beyond the usual limits of such assays
# [21] = molecular target: HLA-B*07:02; assay: as above; conditions: source organism: Homo sapiens
# [22] = molecular target: HLA-B*15:01; assay: as above; conditions: source organism: Homo sapiens
# [23] = molecular target: HLA-B*40:01; assay: as above; conditions: source organism: Mycobacterium tuberculosis variant bovis
# [24] = source organism: Vaccinia virus WR
# [25] = source organism: Zaire ebolavirus
# [26] = source organism: Dengue virus 1 Brazil/97-11/1997
# [27] = source organism: Dengue virus 2 Jamaica/1409/1983
# [28] = source organism: Trypanosoma cruzi
# [29] = source organism: Dengue virus 4 Philippines/H241/1956
# [30] = source organism: Dengue virus 3 Martinique/1243/1999
# [31] = source organism: Dengue virus 4 Dominica/814669/1981
# [32] = source organism: Dengue virus 2 Peru/IQT2913/1996
# [33] = source organism: Lymphocytic choriomeningitis virus (strain Armstrong) (clone 53b)
# [34] = source organism: Lassa virus Josiah
# [35] = source organism: Sudan ebolavirus
sequence,measurement,setting,value
HTHLSNQNL,Kd,[1]; [24],5.78 nM
LPMTVAAMG,Kd,[2]; source organism: Dengue virus 3 Sri Lanka/1266/2000,3540 nM
KDFFSSHPL,IC50,[3]; [25],≥ 249000 nM
same,IC50,[4]; [25],55100 nM
KVVRVQRPAK,Kd,[1]; [26],6.11 nM
TTKDYFSFK,Kd,[1]; [24],1.23 nM
same,Kd,[5],1.07 nM
same,Kd,[6],1.33 nM
same,Kd,[7],17.6 nM
same,Kd,[8],0.861 nM
same,Kd,[9],18.1 nM
VEPGQLKLNW,Kd,[10]; [27],389 nM
same,Kd,[11]; [27],63.2 nM
LLGLWGLATA,Kd,[12]; [28],1.39 nM
same,Kd,[13]; [28],407 nM
same,Kd,[14]; [28],57.9 nM
same,Kd,[15]; [28],1.69 nM
FSGKGPLRMV,Kd,[16]; [29],≥ 38000 nM
EEPVPMSTY,Kd,[10]; [30],360 nM
SSVNVSLTAI,Kd,[13]; [27],184 nM
MSPGYVLGV,Kd,[13]; [31],99.6 nM
KVSDSNLHK,Kd,[17],4.6 nM
same,Kd,[18],190 nM
KNRLNALGK,Kd,[1]; [32],142 nM
EVLTLATGPI,Kd,[13]; [31],100 nM
same,Kd,[19]; [31],10400 nM
SLNQTVHSL,Kd,[12]; [33],2.4 nM
same,Kd,[13]; [33],16100 nM
same,Kd,[14]; [33],≥ 28100 nM
same,Kd,[15]; [33],1.9 nM
WPLSKMDIGV,Kd,[16]; [32],2670 nM
RQLQKIERW,Kd,[20]; source organism: Yellow fever virus,405 nM
QPTELKYSW,Kd,[2]; [27],11 nM
TTTESRCPTQ,Kd,[1]; [27],≥ 28700 nM
LIALSVLAV,Kd,[12]; [34],2.63 nM
same,Kd,[13]; [34],323 nM
same,Kd,[14]; [34],336 nM
same,Kd,[15]; [34],117 nM
GAFFLYDRL,IC50,[3]; [35],≥ 158000 nM
same,IC50,[4]; [35],≥ 122000 nM
EEHKETWHY,Kd,[10]; [29],203 nM
same,Kd,[11]; [29],16.9 nM
RTKPASAPI,Kd,[1]; [24],0.114 nM
LPHQPLATY,Kd,[21],5980 nM
same,Kd,[22],2350 nM
KLEGDSTDL,Kd,[13]; source organism: Homo sapiens,2050 nM
CVIASSGMLW,Kd,[2]; [30],22.2 nM
same,Kd,[19]; [30],1220 nM
HAYQGDYKL,IC50,[3]; [25],≥ 78000 nM
same,IC50,[4]; [25],20900 nM
FTMTHRRPTI,Kd,[13]; [30],114 nM
same,Kd,[14]; [30],647 nM
same,Kd,[16]; [30],≥ 20400 nM
AEAIFKLTY,Kd,[10]; [27],3.67 nM
same,Kd,[11]; [27],34.7 nM
VNNLEHGLF,IC50,[4]; [25],25400 nM
ETYQLWTALI,Kd,[13]; [30],2.28 nM
same,Kd,[19]; [30],114 nM
AEQIVLGVI,Kd,[23],61.1 nM
AVKDVTITK,Kd,[1]; [24],2.16 nM
AELEDGAYRI,Kd,[10]; [27],16 nM
same,Kd,[11]; [27],17.9 nM
LALREFKEF,Kd,[2]; [26],1730 nM
VSRLEHQMW,Kd,[20]; source organism: West Nile virus,90.5 nM
NESDPEGALW,Kd,[10]; [26],26.6 nM
same,Kd,[11]; [26],134 nM
AVSFSSPIS,Kd,[1]; [24],1310 nM
PLNDNIATLL,Kd,[13]; source organism: Homo sapiens,7440 nM
NELNYILWE,Kd,[11]; [30],270 nM
ATFTVNIFK,Kd,[1]; [24],3.13 nM
TTELRTFSI,IC50,[3]; [25],68300 nM
same,IC50,[4]; [25],12200 nM
SHLTTLATI,IC50,[3]; [25],13200 nM
same,IC50,[4]; [25],402 nM
GLLPSLLLLL,Kd,[12]; [28],1.83 nM
same,Kd,[13]; [28],≥ 33000 nM
same,Kd,[14]; [28],7.28 nM
same,Kd,[15]; [28],3.06 nM
